{
  "source": "patent US20140363844",
  "proteins": {"B1": {"name": "Saponaria vaccaria PCY1 (recombinant, N-terminal His6-tag, expressed in E. coli from pCB008) (protein)", "chain": "MATSGFSKPLHYPPVRRDETVVDDYFGVKVADPYRWLEDPNSEETKEFVDNQEKLANSVLEECELIDKFKQKIIDFVNFPRCGVPFRRANKYFHFYNSGLQAQNVFQMQDDLDGKPEVLYDPNLREGGRSGLSLYSVSEDAKYFAFGIHSGLTEWVTIKILKTEDRSYLPDTLEWVKFSPAIWTHDNKGFFYCPYPPLKEGEDHMTRSAVNQEARYHFLGTDQSEDILLWRDLENPAHHLKCQITDDGKYFLLYILDGCDDANKVYCLDLTKLPNGLESFRGREDSAPFMKLIDSFDASYTAIANDGSVFTFQTNKDAPRKKLVRVDLNNPSVWTDLVPESKKDLLESAHAVNENQLILRYLSDVKHVLEIRDLESGALQHRLPIDIGSVDGITARRRDSVVFFKFTSILTPGIVYQCDLKNDPTQLKIFRESVVPDFDRSEFEVKQVFVPSKDGTKIPIFIAARKGISLDGSHPCEMHGYGGFGINMMPTFSASRIVFLKHLGGVFCLANIRGGGEYGEEWHKAGFRDKKQNVFDDFISAAEYLISSGYTKARRVAIEGGSNGGLLVAACINQRPDLFGCAEANCGVMDMLRFHKFTLGYLWTGDYGCSDKEEEFKWLIKYSPIHNVRRPWEQPGNEETQYPATMILTADHDDRVVPLHSFKLLATMQHVLCTSLEDSPQKNPIIARIQRKAAHYGRATMTQIAEVADRYGFMAKALEAPWID"}},
  "key": {"[1]": {"molecular_target": "T1, Presegetalin A1[14,32]A19V", "T1 chain": "GVPVWVFQAKDVENASAPV"}, "[2]": {"molecular_target": "T2, Presegetalin A1[14,32]A30V", "T2 chain": "GVPVWAFQAKDVENASVPV"}, "[3]": {"molecular_target": "T3, Presegetalin A1[14,32]E26A", "T3 chain": "GVPVWAFQAKDVANASAPV"}, "[4]": {"molecular_target": "T4, Presegetalin A1[14,32]F20A", "T4 chain": "GVPVWAAQAKDVENASAPV"}, "[5]": {"molecular_target": "T5, Presegetalin A1[14,32]G14A", "T5 chain": "AVPVWAFQAKDVENASAPV"}, "[6]": {"molecular_target": "T6, Presegetalin A1[14,32]Q21A", "T6 chain": "GVPVWAFAAKDVENASAPV"}, "[7]": {"molecular_target": "T7, Presegetalin A1[14,32]W18w", "T7 chain": "GVPVWAFQAKDVENASAPV"}, "Presegetalin B1[14,31]": {"molecular_target": "T8, Presegetalin B1[14,31]", "T8 chain": "GVAWAFQAKDVENASAPV"}, "Presegetalin G1[14,31]": {"molecular_target": "T9, Presegetalin G1[14,31]", "T9 chain": "GVKYAFQPKDSENASAPV"}},
  "data": [
    {"protein": "B1", "values": [
      {"measurement": "CP (cyclic peptide product detected by LC/MS)", "setting": "[1]", "result": "-"},
      {"measurement": "LP (linear peptide product detected by LC/MS)", "setting": "[1]", "result": "-"},
      {"measurement": "CP (cyclic peptide product detected by LC/MS)", "setting": "[2]", "result": "+"},
      {"measurement": "LP (linear peptide product detected by LC/MS)", "setting": "[2]", "result": "+"},
      {"measurement": "linear segetalin A production relative to WT substrate", "setting": "[2]", "result": "showed a relative increase in production of linear segetalin A"},
      {"measurement": "CP (cyclic peptide product detected by LC/MS)", "setting": "[3]", "result": "+"},
      {"measurement": "LP (linear peptide product detected by LC/MS)", "setting": "[3]", "result": "+"},
      {"measurement": "linear segetalin A production relative to WT substrate", "setting": "[3]", "result": "showed a relative increase in production of linear segetalin A"},
      {"measurement": "segetalin A production relative to WT substrate", "setting": "[3]", "result": "substitutions at positions 25, 26 and 29 (No. 18, 19 and 22) yielded relatively higher amounts of segetalin A than that produced from WT substrate"},
      {"measurement": "CP (cyclic peptide product detected by LC/MS)", "setting": "[4]", "result": "+"},
      {"measurement": "LP (linear peptide product detected by LC/MS)", "setting": "[4]", "result": "+"},
      {"measurement": "linear segetalin A production relative to WT substrate", "setting": "[4]", "result": "a relative increase in production of linear segetalin A from all mutant substrates except with No. 13 and No. 14"},
      {"measurement": "segetalin A production relative to WT substrate", "setting": "[4]", "result": "segetalin A production was found to be ≧42 times lower than the WT substrate"},
      {"measurement": "CP (cyclic peptide product detected by LC/MS)", "setting": "[5]", "result": "+"},
      {"measurement": "LP (linear peptide product detected by LC/MS)", "setting": "[5]", "result": "+"},
      {"measurement": "linear peptide product in LC/MS", "setting": "[5]", "result": "the highest amount of linear peptide product was detected with No. 7"},
      {"measurement": "relative intensity of cyclic peptide product in LC/MS", "setting": "[5]", "result": "makes less product (cyclic peptide) with the substitution of glycine to alanine at the first position in segetalin A (No. 7) than with No. 8 to 11"},
      {"measurement": "CP (cyclic peptide product detected by LC/MS)", "setting": "[6]", "result": "+"},
      {"measurement": "LP (linear peptide product detected by LC/MS)", "setting": "[6]", "result": "+"},
      {"measurement": "linear segetalin A production relative to WT substrate", "setting": "[6]", "result": "a relative increase in production of linear segetalin A from all mutant substrates except with No. 13 and No. 14"},
      {"measurement": "segetalin A production relative to WT substrate", "setting": "[6]", "result": "positions were found to be sensitive to substitution ... position 20, 21, 23, 24, 27, 28 and 31"},
      {"measurement": "CP (cyclic peptide product detected by LC/MS)", "setting": "[7]", "result": "+"},
      {"measurement": "LP (linear peptide product detected by LC/MS)", "setting": "[7]", "result": "+"},
      {"measurement": "conversion to cyclic peptide (LC/MS)", "setting": "[7]", "result": "the W18w mutant of presegetalin A1 was apparently relatively weakly converted to cyclic peptide"},
      {"measurement": "CP (cyclic peptide product detected by LC/MS)", "setting": "Presegetalin B1[14,31]", "result": "+"},
      {"measurement": "LP (linear peptide product detected by LC/MS)", "setting": "Presegetalin B1[14,31]", "result": "-"},
      {"measurement": "CP (cyclic peptide product detected by LC/MS)", "setting": "Presegetalin G1[14,31]", "result": "+"},
      {"measurement": "LP (linear peptide product detected by LC/MS)", "setting": "Presegetalin G1[14,31]", "result": "-"}
    ]}
  ]
}
